From patent EP2605788B1 come the findings set out here.

Some targets named below: CD22 (human) (UniProt P20273); CD74 (human) (UniProt P04233); CD20 (human) (UniProt P11836).
What all share (test): cell-based or functional assay

Sequence of CD20 (human) (P11836 whole entry): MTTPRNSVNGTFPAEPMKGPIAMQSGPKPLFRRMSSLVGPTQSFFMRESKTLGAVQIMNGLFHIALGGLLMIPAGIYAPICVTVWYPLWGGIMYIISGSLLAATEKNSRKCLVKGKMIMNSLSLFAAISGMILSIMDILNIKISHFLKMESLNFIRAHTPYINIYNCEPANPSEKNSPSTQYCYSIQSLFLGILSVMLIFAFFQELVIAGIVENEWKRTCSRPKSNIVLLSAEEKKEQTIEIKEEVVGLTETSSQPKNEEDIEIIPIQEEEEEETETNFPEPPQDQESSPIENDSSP
Sequence of CD74 (human) (P04233 whole entry): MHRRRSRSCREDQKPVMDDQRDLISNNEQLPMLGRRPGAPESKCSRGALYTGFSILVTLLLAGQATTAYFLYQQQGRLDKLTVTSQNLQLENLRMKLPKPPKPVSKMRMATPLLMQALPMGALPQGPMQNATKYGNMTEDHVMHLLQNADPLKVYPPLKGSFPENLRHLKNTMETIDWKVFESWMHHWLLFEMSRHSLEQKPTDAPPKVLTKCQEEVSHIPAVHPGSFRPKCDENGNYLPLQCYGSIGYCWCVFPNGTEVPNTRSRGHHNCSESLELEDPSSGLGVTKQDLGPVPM

22-Rap: in the test with CD22 (human), the in vitro cytotoxicity, NHL cell lines is greater than 1 nM.

In the test with CD74 (human), 74-(20)-(20) (bispecific antibody) had an EC50, MTS assay, CLL (WAC, MEC-1), ALL (REH-1, MN60) and MM (CAG, RPMI8226, KMS11, KMS12-BM, KMS12-PE) lines greater than 100 nM; a homotypic adhesion (%), JeKo-1, 10 nM, 2 h of 90%; a homotypic adhesion (%), JeKo-1, 10 nM, 24 h greater than 95%. In the test with CD20 (human), the homotypic adhesion (%), JeKo-1, 10 nM, 2 h amounted to 90% and the homotypic adhesion (%), JeKo-1, 10 nM, 24 h was greater than 95%.

Regarding 20-Rap, in the test with CD20 (human), the EC50, in vitro cytotoxicity, Daudi and Ramos turned out to be 0.1 nM; the EC50, in vitro cytotoxicity, Jeko-1 was found to be 20 pM; the fold more potent than 22-Rap, in vitro cytotoxicity, Jeko-1 amounted to 25 fold; the in vitro cytotoxicity, NHL cell lines was greater than 1 nM.

In the test with CD74 (human), 20-(74)-(74) (bispecific antibody) came in with an EC50, MTS assay, CLL (WAC, MEC-1), ALL (REH-1, MN60) and MM (CAG, RPMI8226, KMS11, KMS12-BM, KMS12-PE) lines greater than 100 nM; a homotypic adhesion (%), JeKo-1, 10 nM, 2 h of 90%; a homotypic adhesion (%), JeKo-1, 10 nM, 24 h greater than 95%. In the test with CD20 (human), this substance registered a homotypic adhesion (%), JeKo-1, 10 nM, 2 h of 90% and a homotypic adhesion (%), JeKo-1, 10 nM, 24 h greater than 95%.
